Measured values from patent publication US20030148958A1 (PROCTER AND GAMBLE, published 2003).
Ends that are not written are not given here.

T1: corticotropin releasing factor 2 receptor
T1 sequence (Q13324 whole entry, species assumed, looked up): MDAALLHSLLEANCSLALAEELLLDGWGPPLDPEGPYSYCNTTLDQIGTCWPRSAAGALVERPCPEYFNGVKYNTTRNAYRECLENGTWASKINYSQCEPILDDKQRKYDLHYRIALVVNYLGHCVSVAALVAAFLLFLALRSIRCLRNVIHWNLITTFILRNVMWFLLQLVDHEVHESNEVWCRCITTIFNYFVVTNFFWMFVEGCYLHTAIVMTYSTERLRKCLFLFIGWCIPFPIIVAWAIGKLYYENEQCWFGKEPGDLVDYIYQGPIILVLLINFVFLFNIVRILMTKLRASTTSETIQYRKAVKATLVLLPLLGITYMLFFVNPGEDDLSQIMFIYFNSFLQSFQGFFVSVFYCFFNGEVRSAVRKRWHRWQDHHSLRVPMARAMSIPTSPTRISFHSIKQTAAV


Assays:
[1] = target: corticotropin releasing factor 1 receptor; experiment: cell-based or functional assay
[2] = target: T1, corticotropin releasing factor 2 …; experiment: cell-based or functional assay
For CRF1R Emax in this document: reference of the scale not given here.
For CRF2R Emax in this document: reference of the scale not given here.

Row | Binder | CRF1R EC50 [1] | CRF1R Emax [1] | CRF2R EC50 [2] | CRF2R Emax [2]
1 | DNPSLSIDLPFLLLRTLLELARTQSQRERAEQNAIIFASV-NH2 [SEQ ID NO 180] | 125 nM | 99.3% | 3.14 nM | 95.7%
2 | DNPSLSIDLPFILLRTLLELARTQSQRERAEQNAIIFASV-NH2 [SEQ ID NO 181] | 154 nM | 100% | 5.22 nM | 97.8%
3 | DNPSLSIDLPFQLLRTLLELARTQSQRERAEQNAIIFASV-NH2 [SEQ ID NO 182] | 409 nM | 89.7% | 7.21 nM | 91.4%
4 | ZGPPISIDLPFQLLRKMIEIEKQEKEKQQATTNRLLLARV (C-terminal amide) [SEQ ID NO 19] | 232 nM | 83% | 7.42 nM | 75%
5 | ZGPPISIDLPFQLLRKMIEIEKQEKEKQQATTNARLLARV (C-terminal amide) [SEQ ID NO 23] | 1000 nM | 82% | 10.2 nM | 100%
6 | ZGPPISIDLPFQLLRKMIEIEKQEKEKQQATTNARLLDTV (C-terminal amide) [SEQ ID NO 20] | 906 nM | 60% | 7.81 nM | 99%
7 | ZGPPISIDLPFQLLRKMIEIEKQEKEKQQATTNARLLDRV (C-terminal amide) [SEQ ID NO 22] | 1000 nM | 64% | 8.33 nM | 100%
8 | ZGPPISIDLPFQLLRKMIEIEKQEKEKQQATTNARLLATV (C-terminal amide) [SEQ ID NO 21] | 908 nM | 88% | 8.46 nM | 96%
9 | ZGPPISIDLPHWLLRKMIEIEKQEKEKQQAANNRLLLDTI (C-terminal amide) [SEQ ID NO 186] | 323 nM | 100% | 25.1 nM | 100%
10 | ZGPPISIDLPITLLRKMIEIEKQEKEKQQAANNRLLLDTI (C-terminal amide) [SEQ ID NO 24] | > 1000 nM | 18% | 43.1 nM | 100%
11 | ZGPPISIDLPLLLLRKMIEIEKQEKEKQQAANNRLLLDTI (C-terminal amide) [SEQ ID NO 188] | 162 nM | 96% | 14.6 nM | 100%
12 | ZGPPISIDLPWFLLRKMIEIEKQEKEKQQAANNRLLLDTI (C-terminal amide) [SEQ ID NO 187] | 31.6 nM | 72% | 10.3 nM | 100%
13 | ZGPPISIDLPFVLLRKMIEIEKQEKEKQQAANNRLLLDTI (C-terminal amide) [SEQ ID NO 190] | > 100 nM | 9% | 39.6 nM | 31%
14 | ZGPPISIDLPFILLRKMIEIEKQEKEKQQAANNRLLLDTI (C-terminal amide) [SEQ ID NO 189] | 62.2 nM | 57% | 7 nM | 96%
15 | DNPSLSIDLPFFLLRTLLELARTQSQRERAEQNAIIFASV-NH2 [SEQ ID NO 184] | 486 nM | 77.3% | 3.72 nM | 96.5%
16 | DNPSLSIDLPFYLLRTLLELARTQSQRERAEQNAIIFASV-NH2 [SEQ ID NO 183] | 415 nM | 57.5% | 7.93 nM | 100%
17 | DNPSLSIDLPFHLLRTLLELARTQSQRERAEQNAIIFASV-NH2 [SEQ ID NO 185] | 358 nM | 95.8% | 8.98 nM | 100%
18 | DNPSLSIDLPLHLLRTLLELARTQSQRERAEQNAIIFASV-NH2 [SEQ ID NO 179] | 477 nM | 78.9% | 10.2 nM | 92.5%

Now from value to binder:

Row | CRF1R EC50 [1] | CRF1R Emax [1] | CRF2R EC50 [2] | CRF2R Emax [2] | Binder
19 | 43.5 nM | 90% | 10.2 nM | 97% | ZGPPISIDLPWQLLRKMIEIEKQEKEKQQAANNRLLLDTI (C-terminal amide) [SEQ ID NO 210]
20 | 562 nM | 99% | 66.8 nM | 97% | ZGPPISIDLPIWLLRKMIEIEKQEKEKQQAANNRLLLDTI (C-terminal amide) [SEQ ID NO 192]
21 | 447 nM | 96% | 27.7 nM | 97% | ZGPPISIDLPQLLLRKMIEIEKQEKEKQQAANNRLLLDTI (C-terminal amide) [SEQ ID NO 196]
22 | 64.9 nM | 81% | 5.6 nM | 88% | ZGPPISIDLPYHLLRKMIEIEKQEKEKQQAANNRLLLDTI (C-terminal amide) [SEQ ID NO 208]
23 | 63.7 nM | 65% | 8.3 nM | 100% | ZGPPISIDLPFLLLRKMIEIEKQEKEKQQAANNRLLLDTI (C-terminal amide) [SEQ ID NO 191]
24 | 26.4 nM | 80% | 7.4 nM | 93% | ZGPPISIDLPWHLLRKMIEIEKQEKEKQQAANNRLLLDTI (C-terminal amide) [SEQ ID NO 209]
25 | 106 nM | 94% | 5 nM | 96% | ZGPPISIDLPLILLRKMIEIEKQEKEKQQAANNRLLLDTI (C-terminal amide) [SEQ ID NO 194]
26 | 76.2 nM | 86% | 5.2 nM | 94% | ZGPPISIDLPYLLLRKMIEIEKQEKEKQQAANNRLLLDTI (C-terminal amide) [SEQ ID NO 203]
27 | 826 nM | 37% | 59.5 nM | 100% | ZGPPISIDLPAQLLRKMIEIEKQEKEKQQAANNRLLLDTI (C-terminal amide) [SEQ ID NO 211]
28 | 99.6 nM | 80% | 5 nM | 100% | ZGPPISIDLPYVLLRKMIEIEKQEKEKQQAANNRLLLDTI (C-terminal amide) [SEQ ID NO 201]
29 | 32.1 nM | 74% | 3.6 nM | 93% | ZGPPISIDLPYILLRKMIEIEKQEKEKQQAANNRLLLDTI (C-terminal amide) [SEQ ID NO 204]
30 | 103 nM | 93% | 18.8 nM | – | ZGPPISIDLPLFLLRKMIEIEKQEKEKQQAANNRLLLDTI (C-terminal amide) [SEQ ID NO 195]
31 | 266 nM | 95% | 10.1 nM | 97% | ZGPPISIDLPLVLLRKMIEIEKQEKEKQQAANNRLLLDTI (C-terminal amide) [SEQ ID NO 193]
32 | 706 nM | 93% | 8.5 nM | 92% | ZGPPISIDLPQILLRKMIEIEKQEKEKQQAANNRLLLDTI (C-terminal amide) [SEQ ID NO 199]
33 | 696 nM | 97% | 30.5 nM | 97% | ZGPPISIDLPAHLLRKMIEIEKQEKEKQQAANNRLLLDTI (C-terminal amide) [SEQ ID NO 206]
34 | 188 nM | 99% | 8.8 nM | 100% | ZGPPISIDLPYTLLRKMIEIEKQEKEKQQAANNRLLLDTI (C-terminal amide) [SEQ ID NO 200]
35 | 126 nM | 88% | 25 nM | 93% | ZGPPISIDLPHHLLRKMIEIEKQEKEKQQAANNRLLLDTI (C-terminal amide) [SEQ ID NO 205]
36 | 466 nM | 88% | 61.4 nM | 96% | ZGPPISIDLPQHLLRKMIEIEKQEKEKQQAANNRLLLDTI (C-terminal amide) [SEQ ID NO 207]
37 | 404 nM | 100% | 8.7 nM | 99% | ZGPPISIDLPYQLLRKMIEIEKQEKEKQQAANNRLLLDTI (C-terminal amide) [SEQ ID NO 202]
